Test results published in article doi:10.1101/2022.03.14.484356 (bioRxiv, 2022).

Target: T1, recombinant RABL3 (human, UniProt Q5HYI8 1-236)
T1 sequence (looked up): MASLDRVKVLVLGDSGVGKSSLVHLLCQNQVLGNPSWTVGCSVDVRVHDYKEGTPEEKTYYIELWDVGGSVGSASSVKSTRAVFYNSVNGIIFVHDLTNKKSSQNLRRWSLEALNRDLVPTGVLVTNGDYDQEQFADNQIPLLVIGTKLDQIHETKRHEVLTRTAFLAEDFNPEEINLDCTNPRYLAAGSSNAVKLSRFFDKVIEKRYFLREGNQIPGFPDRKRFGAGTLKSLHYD
Assay: pull-down

binding result: binds
B1: recombinant GST-RAB11A (natural protein, human, UniProt P62491 1-216, looked up)
chain: MGTRDDEYDYLFKVVLIGDSGVGKSNLLSRFTRNEFNLESKSTIGVEFATRSIQVDGKTIKAQIWDTAGQERYRAITSAYYRGAVGALLVYDIAKHLTYENVERWLKELRDHADSNIVIMLVGNKSDLRHLRAVPTDEARAFAEKNGLSFIETSALDSTNVEAAFQTILTEIYRIVSQKQMSDRRENDMSPSNNVVPIHVPPTTENKPKVQCCQNI
